± gives the uncertainty stated by the source.

The values that follow come from the supplement of paper PMC12042874.

This data set in a line: amyloid nucleation score (Sup35N fusion, yeast selection) (log enrichment); library NNK1; higher = more nucleation; inactive = no reads after selection. The essentials:
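Three technical output replicates were used for random libraries. Psi-negative yeast expressing peptides of 20 random codons fused to Sup35N were induced with 100 μM copper sulfate for 24 hours and grown 7 days at 30°C on medium lacking adenine and uracil, and input and output plasmid inserts were Illumina-sequenced, excluding sequences with under 100 input reads. The nucleation score is the DiMSum log enrichment of output over input reads, centred on the mode score of non-aggregating sequences.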
As for RLMNRFMPKSLLLLLPVFVR, the amyloid nucleation score entry was “inactive”.

Consider NNGGASVGFWRMPCHWTRMH, for which the amyloid nucleation score was -0.371 ± 0.59.

In turn, AGNCRDW gave an amyloid nucleation score of -0.857 ± 0.66.

As to FNSFCFQNVTLW, the amyloid nucleation score entry was “inactive”.

FTSRYLDF registered an amyloid nucleation score of 0.382 ± 1.2.

Take ISRADVWVWFLLSMSRREYF: the amyloid nucleation score is 0.268 ± 0.55.

Take AMGARMFRNYRTACAHLLQW: the amyloid nucleation score worked out at 0.019 ± 1.

In turn, CVTLCSNPWDQKRFICIYRH registered an amyloid nucleation score of -0.021 ± 0.55.

As to AQQLLIGDDDLDTAVEFDDM, the amyloid nucleation score was -0.509 ± 0.86.

RSIFSWSTR: the amyloid nucleation score is 0.641 ± 0.42.

The substance FMYSKPVI displayed an amyloid nucleation score of -0.314 ± 0.78.

In the case of AEGCRIPGRQSYRYGDICPR, the amyloid nucleation score is -0.373 ± 0.39.

QIRRGCRYFW had an amyloid nucleation score of -0.856 ± 1.1.

Substance SVRVPWLASFCSKFMSGAYI showed an amyloid nucleation score of 0.058 ± 0.41.

Regarding DASGNYWGWKLWGDQGERGY, the amyloid nucleation score entry was “inactive”.

The substance RYVETNSGAE showed an amyloid nucleation score of 0.669 ± 0.43.

The substance NADCVTMVYSKLVWLPVEDT came in with an amyloid nucleation score of 0.458 ± 0.57.

Turning to SWRLK, the amyloid nucleation score amounted to 3.35 ± 0.073.

Turning to RDPVLDVGLRCMWHNGGPFG, the amyloid nucleation score is -0.035 ± 1.4.

In turn, SVLFNAAFFKFQNRF yielded an amyloid nucleation score of 0.5 ± 0.6.

As for EMTPLLCATVRKPWKRVMIN, the amyloid nucleation score is -0.311 ± 0.73.

Take FLLLTSMNPLEWTYGRFWGV: the amyloid nucleation score is -0.597 ± 0.72.

As for CERQNYVP, the amyloid nucleation score came out at 0.326 ± 1.2.

QLQTSQRV: the amyloid nucleation score result was “inactive”.

Consider LWATNFCNTGFVYSLCIFSR, for which the amyloid nucleation score was 3.89 ± 0.12.

Substance GFLVSEGFLIVGLLIRVRGL had an amyloid nucleation score of 0.641 ± 0.37.

With GNAWCGLGSKKYCVWLYHYS, the amyloid nucleation score stood at 0.214 ± 0.28.

For the substance VHRDFGSENYSTLEVCNSLT, the amyloid nucleation score amounted to 1.16 ± 0.84.

With RSVRLMNRVSGWNMWWKDGT, the amyloid nucleation score is -0.535 ± 1.2.

Turning to SDRDVVRVIYNSVGGTVWFG, the amyloid nucleation score turned out to be 1.07 ± 0.19.

On to NLFLMLVDLVSLGTTI, for which the amyloid nucleation score worked out at 2.08 ± 0.51.

Turning to SETYVLLKNPSDNIMQKWCV, the amyloid nucleation score was found to be 0.147 ± 0.79.

QWKGSFSSV returned an amyloid nucleation score of -0.873 ± 1.1.

In the case of MRHRCGHRSVPG, the amyloid nucleation score was -0.118 ± 0.68.

TTGKFDLFGDYHRGSLYSSV: the amyloid nucleation score is -0.768 ± 0.49.

Regarding ICFRSFRHGNYGLMRG, the amyloid nucleation score worked out at 1.35 ± 0.9.

NKYQLHMILKGFQGSAYWSV yielded an amyloid nucleation score of -0.453 ± 0.81.

The substance SIYSFDHYGANRFLFYGGLS gave an amyloid nucleation score of 0.358 ± 0.62.

In the case of ALWVNVMQARAIGSGFGRTK, the amyloid nucleation score is -0.415 ± 0.58.

The substance LWSFIGTGLITNMCISREFK showed an amyloid nucleation score of 0.743 ± 0.16.

Take IHLCYRDYRMHVARLSAETG: the amyloid nucleation score worked out at 0.02 ± 0.53.

As for QLVGFVVPRRSSPGVHTGEC, the amyloid nucleation score turned out to be 1.21 ± 0.53.

Take ECRVCL: the amyloid nucleation score was -0.807 ± 2.4.

Regarding VFWSV, the amyloid nucleation score is -0.096 ± 0.5.

With DVFADGKVIQAYLM, the amyloid nucleation score is -0.117 ± 0.39.

NLQVKFVVYIMPLQKD displayed an amyloid nucleation score of 0.747 ± 0.44.

Substance QARSGPTPLTTWRTRQVTLG gave an amyloid nucleation score of -0.178 ± 0.51.

Turning to VSKDSSIQRGSRQFCYLAYS, the amyloid nucleation score was 1.08 ± 0.61.

For MLYFRVGVSFGLFVDNFVGF, the amyloid nucleation score was 2.12 ± 0.13.

For the substance ILTMVEILKTIRGSA, the amyloid nucleation score was -0.316 ± 0.47.

Turning to RYISYAKCRNYNGLIMYYLY, the amyloid nucleation score came out at 2.52 ± 0.11.

DDCESFEMRAFM returned an amyloid nucleation score of 1 ± 0.55.

Take NRCRDCREVYIKFPTWAWSW: the amyloid nucleation score is -0.253 ± 0.43.

The substance LLKSKGGLPILRPCWLPFWQ yielded an amyloid nucleation score of 0.066 ± 0.75.

LCINLVYRKISPALRF returned an amyloid nucleation score of -0.859 ± 0.75.

In turn, EGRYTRDFKCRFSSERHSPS had an amyloid nucleation score of 0.014 ± 0.47.

In turn, YSVSCSVF came in with an amyloid nucleation score of -0.341 ± 0.31.

In turn, FRRHYNKMNFFVGFRERMCG registered an amyloid nucleation score of -0.262 ± 0.49.

Consider WGICDLKVCVQPCPSSNARI, for which the amyloid nucleation score was -0.059 ± 0.57.

As for LRLTALGSSRPIKFEGNVGY, the amyloid nucleation score was -0.532 ± 0.68.

Turning to LLLIRSYKCNGRRIRICSLL, the amyloid nucleation score is -0.862 ± 0.76.

Substance LCTDCLSGTVSDCRMFSHNR gave an amyloid nucleation score of -0.592 ± 0.75.

In turn, GGFFRHGEIDMYRCSSEWFL displayed an amyloid nucleation score of 0.77 ± 0.97.

Substance YALGVAFSQNSYDT had an amyloid nucleation score of 0.669 ± 0.63.

For the substance KHYIKRASDGHAFSYVHLSL, the amyloid nucleation score came out at 0.068 ± 0.38.

The substance PLTNRNIKIHYDLLSDDKMV came in with an amyloid nucleation score of 0.602 ± 0.26.

RINMGNYSLKWNMFTKVSLK had an amyloid nucleation score of -0.227 ± 0.35.

Substance RFVWKDDTHQAIGTFLMSQG came in with an amyloid nucleation score of 1 ± 0.54.

In the case of TYMFGHMGADMKGRRSWWCE, the amyloid nucleation score turned out to be 0.354 ± 0.44.

VEKRKTFRLGAFGEVRVICS showed an amyloid nucleation score of 0.461 ± 0.99.

The substance VTDCKLMCTVRPVSGSKTPV registered an amyloid nucleation score of 0.139 ± 0.34.

NPRVNNYRVNGWKRGIRDRA showed an amyloid nucleation score of 0.66 ± 0.35.

As for MNCVLIVVPRMTLGNYRSSW, the amyloid nucleation score came to 5.21 ± 0.053.

As to NPVRMMRNRLVLGKNCAPRG, the amyloid nucleation score is -0.024 ± 0.28.

Consider YDHCEGCWMSNRMWELGWKG, for which the amyloid nucleation score was 0.048 ± 0.33.

Take LHLECLWCLARTSYF: the amyloid nucleation score came out at 8.244 ± 0.045.

HICTTFCTSMFSRTSQWSGG: the amyloid nucleation score was 0.673 ± 0.3.

As for VMAMSMLYSLMRNGKKLHFK, the amyloid nucleation score came to 1.67 ± 0.6.

For the substance LTTPSFYLAGCSSS, the amyloid nucleation score was -0.059 ± 0.36.

On to MSDSRIVTVIVRRQPVSQRS, for which the amyloid nucleation score came out at 1.33 ± 0.84.

VGVYGRYIV had an amyloid nucleation score of -0.135 ± 0.28.

WLHIPYS registered an amyloid nucleation score of 0.547 ± 0.61.

NYVYR had an amyloid nucleation score of -0.742 ± 1.2.

DPQTGDGVLAMNKWEPYRGL showed an amyloid nucleation score of 0.697 ± 0.48.

For EEQVDLIWLMYGAYHVCVMW, the amyloid nucleation score came to 0.416 ± 0.43.

Substance FFCEIVMYGWSIM came in with an amyloid nucleation score of 2.97 ± 0.14.

Substance GSSWYNNPVQGILGGYNL had an amyloid nucleation score of -0.348 ± 0.47.

In turn, IFITCIARTLYHAGNLQRNL showed an amyloid nucleation score of 2 ± 0.11.

The substance VDTLLARIIRLRHQFSNTAV came in with an amyloid nucleation score of 0.16 ± 0.29.

As to FMSEDESYVCYRWGWYDRIF, the amyloid nucleation score is -0.919 ± 1.

WVAWTYMENLSCLYFETATM came in with an amyloid nucleation score of -0.593 ± 0.57.

In turn, DLCFCTR gave an amyloid nucleation score of -1.37 ± 2.7.

RYCYRGHMFLFQTSLFKCSS: the amyloid nucleation score is -0.354 ± 0.83.

In the case of PRTTMMAINQVLTGTLEASW, the amyloid nucleation score was -1.01 ± 0.95.

Consider YKHWLYKLSCLEARSEYCGF, for which the amyloid nucleation score amounted to 0.444 ± 1.1.

FIVLAYCLSFWVAIYPEVHM yielded an amyloid nucleation score of 0.581 ± 0.73.

RQIGTAFSDYLHGWCVFSFR displayed an amyloid nucleation score of 3.88 ± 0.11.

For LYAYDWLHEGNSSHKSDLVM, the amyloid nucleation score was -0.791 ± 0.77.

LVTNAYTYSSTGIYDYVRPG came in with an amyloid nucleation score of 0.093 ± 0.81.

For VVLCSVLTFDPSAEHLCTLV, the amyloid nucleation score came out at 6.44 ± 0.066.

GRVDWMCEYLKLMRSVGWSR yielded an amyloid nucleation score of 0.545 ± 0.41.

In turn, FNYYSA gave an amyloid nucleation score of -0.012 ± 0.48.

For the substance IIHFKSGIWNATDGCLIMCV, the amyloid nucleation score came to 0.793 ± 0.65.
